Earlier results on one substance are cited in PMC9395234.

This data set has as its target C4BP (Homo sapiens) (UniProt P04003).
Sequence of UniProt P04003 (P04003 49-597, chain 1 of 2): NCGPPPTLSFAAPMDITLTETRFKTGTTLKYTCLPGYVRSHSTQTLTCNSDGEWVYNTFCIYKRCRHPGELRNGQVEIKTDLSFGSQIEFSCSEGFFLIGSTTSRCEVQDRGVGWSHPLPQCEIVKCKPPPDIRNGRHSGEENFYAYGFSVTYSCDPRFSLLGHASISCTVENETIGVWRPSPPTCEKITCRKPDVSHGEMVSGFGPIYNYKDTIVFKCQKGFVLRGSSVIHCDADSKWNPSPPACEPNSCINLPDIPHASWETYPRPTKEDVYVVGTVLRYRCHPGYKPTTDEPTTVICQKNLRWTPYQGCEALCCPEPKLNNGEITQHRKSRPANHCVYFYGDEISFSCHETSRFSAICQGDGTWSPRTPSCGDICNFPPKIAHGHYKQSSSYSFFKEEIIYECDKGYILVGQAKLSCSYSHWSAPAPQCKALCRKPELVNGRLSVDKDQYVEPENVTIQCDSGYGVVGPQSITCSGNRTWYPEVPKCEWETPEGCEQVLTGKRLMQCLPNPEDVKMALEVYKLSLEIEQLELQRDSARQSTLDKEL
Sequence of UniProt P04003 (P20851 18-252, chain 2 of 2, further chain): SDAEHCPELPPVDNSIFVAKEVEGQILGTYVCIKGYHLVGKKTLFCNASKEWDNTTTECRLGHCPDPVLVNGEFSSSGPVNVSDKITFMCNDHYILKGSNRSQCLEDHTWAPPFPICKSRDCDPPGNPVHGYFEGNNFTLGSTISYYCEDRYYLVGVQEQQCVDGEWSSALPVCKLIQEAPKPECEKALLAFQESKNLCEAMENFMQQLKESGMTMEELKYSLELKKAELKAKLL

Take Protein S (from UniProt P07225): the dissociation constant Kd was 0.1 nM.

A word on the Kd: it is the free concentration of one partner at which half of the binding sites on the other are occupied at equilibrium, for simple one-to-one binding.
